Measurements published in US20250018014A1, “METHOD FOR TREATING AND/OR PREVENTING REGNASE-1-RELATED DISEASE” (OSAKA UNIVERSITY, priority 2018, published 2025).

Experiments:
Experiment in all cases: cell-based or functional assay
[1] = molecular target: T1, full-length human Regnase-1 with a FLAG tag on the N-terminal side and a biotin ligase BirA recognition … (human, UniProt Q5D1E8 1-599, biotinylated at the BirA recognition sequence when required)
T1 sequence: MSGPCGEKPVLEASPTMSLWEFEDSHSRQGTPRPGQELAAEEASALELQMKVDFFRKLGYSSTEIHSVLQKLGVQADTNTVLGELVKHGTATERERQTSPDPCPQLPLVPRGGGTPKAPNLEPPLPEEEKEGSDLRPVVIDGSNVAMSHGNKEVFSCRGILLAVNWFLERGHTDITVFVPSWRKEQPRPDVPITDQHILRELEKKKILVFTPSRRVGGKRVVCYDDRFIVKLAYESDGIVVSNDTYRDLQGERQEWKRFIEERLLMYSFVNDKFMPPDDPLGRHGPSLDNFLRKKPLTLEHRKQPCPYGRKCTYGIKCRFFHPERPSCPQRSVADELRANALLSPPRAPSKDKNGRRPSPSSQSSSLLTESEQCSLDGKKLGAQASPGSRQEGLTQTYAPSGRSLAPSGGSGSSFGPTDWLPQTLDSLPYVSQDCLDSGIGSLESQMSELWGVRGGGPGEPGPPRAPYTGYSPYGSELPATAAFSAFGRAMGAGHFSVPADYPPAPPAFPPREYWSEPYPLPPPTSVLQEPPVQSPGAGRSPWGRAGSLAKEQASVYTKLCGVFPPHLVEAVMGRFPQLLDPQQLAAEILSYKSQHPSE

[2] = molecular target: T2, C-terminal domain-deleted human Regnase-1 (amino acids 1 to 546) with N-terminal FLAG tag and C-terminal BirA … (human, UniProt Q5D1E8 1-546)
T2 sequence: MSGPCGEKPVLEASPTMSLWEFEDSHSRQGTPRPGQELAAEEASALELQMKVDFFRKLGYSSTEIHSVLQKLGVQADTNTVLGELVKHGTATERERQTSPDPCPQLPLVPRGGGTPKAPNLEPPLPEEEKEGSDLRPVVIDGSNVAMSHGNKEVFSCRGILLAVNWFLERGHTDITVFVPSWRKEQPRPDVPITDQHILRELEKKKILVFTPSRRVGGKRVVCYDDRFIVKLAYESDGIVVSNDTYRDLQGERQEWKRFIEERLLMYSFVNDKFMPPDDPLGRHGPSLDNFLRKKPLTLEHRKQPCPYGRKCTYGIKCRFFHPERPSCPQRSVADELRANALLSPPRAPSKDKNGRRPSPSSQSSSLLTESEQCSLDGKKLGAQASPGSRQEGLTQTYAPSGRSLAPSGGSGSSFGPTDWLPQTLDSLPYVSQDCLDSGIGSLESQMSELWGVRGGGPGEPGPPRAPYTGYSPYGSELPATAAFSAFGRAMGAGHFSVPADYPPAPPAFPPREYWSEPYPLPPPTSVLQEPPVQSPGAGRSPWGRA

[3] = molecular target: T3, C-terminal human Regnase-1 (amino acids 301 to 599) with N-terminal FLAG tag and C-terminal BirA recognition … (human, UniProt Q5D1E8 301-599)
T3 sequence: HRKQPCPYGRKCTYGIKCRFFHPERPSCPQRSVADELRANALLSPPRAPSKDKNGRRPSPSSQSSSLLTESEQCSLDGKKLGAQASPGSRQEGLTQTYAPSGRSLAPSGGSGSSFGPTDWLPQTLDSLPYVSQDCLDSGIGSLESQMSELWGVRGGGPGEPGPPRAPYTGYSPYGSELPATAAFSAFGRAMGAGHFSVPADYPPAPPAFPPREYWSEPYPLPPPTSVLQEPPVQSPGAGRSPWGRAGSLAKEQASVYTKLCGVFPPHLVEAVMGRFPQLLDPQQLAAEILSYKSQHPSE

[4] = molecular target: T1, full-length human Regnase-1 with a FLAG …; remark: listed apart in the source
[5] = molecular target: T2, C-terminal domain-deleted human …; remark: listed apart in the source
[6] = molecular target: T3, C-terminal human Regnase-1 (amino acids …); remark: listed apart in the source

Binder | 50% inhibition concentration, Regnase-1 phosphorylation by IKKβ (AlphaScreen) [1] | 50% inhibition concentration, Regnase-1 phosphorylation by IKKβ (AlphaScreen) [2] | 50% inhibition concentration, Regnase-1 phosphorylation by IKKβ (AlphaScreen) [3] | 50% inhibition concentration, Regnase-1 phosphorylation by TBK1 (AlphaScreen) [4] | 50% inhibition concentration, Regnase-1 phosphorylation by TBK1 (AlphaScreen) [5] | 50% inhibition concentration, Regnase-1 phosphorylation by TBK1 (AlphaScreen) [6]
XNFSNSWYNIWD (HELM PEPTIDE1{[meA].N.F.S.N.S.W.Y.N.I.W.D.[C1CCN([*:1])C1]}$PEPTIDE1,PEPTIDE1,1:R1-12:R3$$$V2.0; SMILES CC[C@H](C)[C@@H]1NC(=O)[C@H](CC(N)=O)NC(=O)[C@H](Cc2ccc(O)cc2)NC(=O)[C@H](Cc2c[nH]c3ccccc23)NC(=O)[C@H](CO)NC(=O)[C@H](CC(N)=O)NC(=O)[C@H](CO)NC(=O)[C@H](Cc2ccccc2)NC(=O)[C@H](CC(N)=O)NC(=O)[C@H](C)N(C)C(=O)C[C@@H](C(=O)N2CCCC2)NC(=O)[C@H](Cc2c[nH]c3ccccc23)NC1=O) [PP16] | 20.6 µM | 30.8 µM | 42.2 µM | 52.4 µM | 38.1 µM | > 62.1 µM
XVFYKIWYNWD (HELM PEPTIDE1{[meA].V.F.Y.K.I.W.Y.N.W.D.[C1CCN([*:1])C1]}$PEPTIDE1,PEPTIDE1,1:R1-11:R3$$$V2.0; SMILES CC[C@H](C)[C@@H]1NC(=O)[C@H](CCCCN)NC(=O)[C@H](Cc2ccc(O)cc2)NC(=O)[C@H](Cc2ccccc2)NC(=O)[C@H](C(C)C)NC(=O)[C@H](C)N(C)C(=O)C[C@@H](C(=O)N2CCCC2)NC(=O)[C@H](Cc2c[nH]c3ccccc23)NC(=O)[C@H](CC(N)=O)NC(=O)[C@H](Cc2ccc(O)cc2)NC(=O)[C@H](Cc2c[nH]c3ccccc23)NC1=O) [PP19] | 5.4 µM | 12.6 µM | 10.1 µM | 3.7 µM | 4.6 µM | 5.8 µM
XNSWYINIWGHD (HELM PEPTIDE1{[meA].N.S.W.Y.I.N.I.W.G.H.D.[C1CCN([*:1])C1]}$PEPTIDE1,PEPTIDE1,1:R1-12:R3$$$V2.0; SMILES CC[C@H](C)[C@@H]1NC(=O)[C@H](CC(N)=O)NC(=O)[C@H]([C@@H](C)CC)NC(=O)[C@H](Cc2ccc(O)cc2)NC(=O)[C@H](Cc2c[nH]c3ccccc23)NC(=O)[C@H](CO)NC(=O)[C@H](CC(N)=O)NC(=O)[C@H](C)N(C)C(=O)C[C@@H](C(=O)N2CCCC2)NC(=O)[C@H](Cc2c[nH]cn2)NC(=O)CNC(=O)[C@H](Cc2c[nH]c3ccccc23)NC1=O) [PP15] | 5.6 µM | 31 µM | 22 µM | 8.5 µM | 9.5 µM | 17.4 µM
XDIWFDYWDWD (HELM PEPTIDE1{[meA].D.I.W.F.D.Y.W.D.W.D.[C1CCN([*:1])C1]}$PEPTIDE1,PEPTIDE1,1:R1-11:R3$$$V2.0; SMILES CC[C@H](C)[C@@H]1NC(=O)[C@H](CC(=O)O)NC(=O)[C@H](C)N(C)C(=O)C[C@@H](C(=O)N2CCCC2)NC(=O)[C@H](Cc2c[nH]c3ccccc23)NC(=O)[C@H](CC(=O)O)NC(=O)[C@H](Cc2c[nH]c3ccccc23)NC(=O)[C@H](Cc2ccc(O)cc2)NC(=O)[C@H](CC(=O)O)NC(=O)[C@H](Cc2ccccc2)NC(=O)[C@H](Cc2c[nH]c3ccccc23)NC1=O) [PP17] | 0.5 µM | 0.3 µM | 0.7 µM | < 0.06 µM | 0.3 µM | < 0.06 µM
XDIWFDYWDYD (HELM PEPTIDE1{[meA].D.I.W.F.D.Y.W.D.Y.D.[C1CCN([*:1])C1]}$PEPTIDE1,PEPTIDE1,1:R1-11:R3$$$V2.0; SMILES CC[C@H](C)[C@@H]1NC(=O)[C@H](CC(=O)O)NC(=O)[C@H](C)N(C)C(=O)C[C@@H](C(=O)N2CCCC2)NC(=O)[C@H](Cc2ccc(O)cc2)NC(=O)[C@H](CC(=O)O)NC(=O)[C@H](Cc2c[nH]c3ccccc23)NC(=O)[C@H](Cc2ccc(O)cc2)NC(=O)[C@H](CC(=O)O)NC(=O)[C@H](Cc2ccccc2)NC(=O)[C@H](Cc2c[nH]c3ccccc23)NC1=O) [PP18] | 0.4 µM | 0.2 µM | 0.5 µM | 0.6 µM | 1.8 µM | 0.9 µM
XKFWIHHSFED (HELM PEPTIDE1{[meA].K.F.W.I.H.H.S.F.E.D.[C1CCN([*:1])C1]}$PEPTIDE1,PEPTIDE1,1:R1-11:R3$$$V2.0; SMILES CC[C@H](C)[C@@H]1NC(=O)[C@H](Cc2c[nH]c3ccccc23)NC(=O)[C@H](Cc2ccccc2)NC(=O)[C@H](CCCCN)NC(=O)[C@H](C)N(C)C(=O)C[C@@H](C(=O)N2CCCC2)NC(=O)[C@H](CCC(=O)O)NC(=O)[C@H](Cc2ccccc2)NC(=O)[C@H](CO)NC(=O)[C@H](Cc2c[nH]cn2)NC(=O)[C@H](Cc2c[nH]cn2)NC1=O) [PP20] | 24.7 µM | > 62.1 µM | > 62.1 µM | 38.5 µM | > 62.1 µM | > 62.1 µM
XRFGVWSWIYPD (HELM PEPTIDE1{[meA].R.F.G.V.W.S.W.I.Y.P.D.[C1CCN([*:1])C1]}$PEPTIDE1,PEPTIDE1,1:R1-12:R3$$$V2.0; SMILES CC[C@H](C)[C@@H]1NC(=O)[C@H](Cc2c[nH]c3ccccc23)NC(=O)[C@H](CO)NC(=O)[C@H](Cc2c[nH]c3ccccc23)NC(=O)[C@H](C(C)C)NC(=O)CNC(=O)[C@H](Cc2ccccc2)NC(=O)[C@H](CCCNC(=N)N)NC(=O)[C@H](C)N(C)C(=O)C[C@@H](C(=O)N2CCCC2)NC(=O)[C@@H]2CCCN2C(=O)[C@H](Cc2ccc(O)cc2)NC1=O) [PP14] | 1.6 µM | 9 µM | 6.5 µM | 3.1 µM | 5.2 µM | 6.8 µM
